Results taken from patent US8821943B2, “Methods and compositions for targeted delivery of therapeutic agents” (Board of Regents of the University of Nebraska, priority 2006, dated 2014).
Like-named read-outs stand apart in the source and are kept apart here.

Columns and labels:
LHRH-receptor = experiment: Receptor binding assays (kinetic, saturation, competition) with 125I-deslorelin in bovine pituitary and nasal tissue homogenates; settings: for IC50: read-out: Low affinity - IC50 II
Method: Radioactivity was measured in the pellet using a Perkin-Elmer γ-counter.
Reprod. […] Reprod. […] Radioactivity was measured in the pellet using a Perkin-Elmer γ-counter. […] The experiment was repeated three times.
Competition Studies: To determine the amount of unlabelled deslorelin required to displace the radioactivity, competition studies were conducted. […] Assays were performed in triplicates. At the end of 4 hr, the incubation tubes were centrifuged at 10,000 g for 20 min at 4° C. to separate the bound fraction. Radioactivity was measured in the pellet using a Perkin-Elmer γ-counter. The same controls as in the kinetic and saturation studies were used. The experiment was repeated three times.

[1] = in vivo, cited from earlier work
[2] = 3H-mannitol transport across excised bovine cornea (corneal barrier integrity); type: in vitro ADME; settings: read-out: apparent permeability coefficient of mannitol
Method: The corneal barrier integrity in the ex vivo bovine model of Example 5 was also studied by analysis of ^3H-mannitol transport, with or without nanoparticle exposure. ^3H-mannitol was obtained from American Radiolabeled Chemicals, Inc. (St. Louis, Mo.). ^3H-mannitol transport across excised bovine cornea was performed without any treatment or after dosing the bovine ex vivo eye model with a 50 μl drop of assay buffer or 50 μl of 1 mg/ml nanoparticle suspension followed by incubation up to 60 min with buffer treatments as described above. Temperature was maintained at 37° C.
At 0, 5 and 60 minutes after assay buffer drop instillation and 60 min after nanoparticles drop instillation, the eyes were washed thrice with assay buffer (1 ml each time) and the corneas were isolated from the eyeball. The tissues were then mounted in modified Ussing chambers (Navicyte, Reno, N.Y.) for mannitol transport study. The aperture area of the chambers is 0.64 cm^2. The corneal area exposed was expected to be slightly greater than the chamber aperture area due to corneal curvature. ^3H-mannitol (1.5 ml; 1 μCi/ml) was placed in the donor chamber (epithelial to endothelial transport) and plain assay buffer (1.5 ml) was placed in the receiver chamber. At various time points up to 4 hours, 200 μl samples were removed from the receiver chamber and replaced with an equal volume of fresh assay buffer. To each sample, 4 ml of scintillation fluid (Fisher Scientific, NJ) was added and the radioactivity was quantified using a liquid scintillation counter. […] Data are expressed as mean±standard deviation for n=4.

[3] = Particle size, polydispersity and zeta-potential by dynamic light scattering; type: physicochemical; settings: Table 2, polystyrene nanoparticles
Method: Nanoparticle carrier particles were formed by the methods of the preceding Example, and characterized as follows. The particle size and the zeta-potential were measured using Zeta Plus zeta-potential analyzer (Brookhaven Instruments Ltd., New York, N.Y.), which employs the dynamic light scattering technique for particle size measurement. The particle size and zeta-potential measurements were made after 1:1000 dilution of particle stock in filtered deionized water. Further, the particles were visualized using a transmission electron microscope (TEM). The carbon-coated grids were floated on a suspension droplet of plain or functionalized nanoparticles on a flexible plastic film (Parafilm, Pechiney Plastic Packaging, Neenah, Wis.) to allow the adsorption of nanoparticles onto the grid. After drying the particles, uranyl acetate was added as a negative stain to the carbon grid and allowed to react with the particles. This procedure makes the particles electron dense, allowing their visualization using an electron microscope. The particles were photographed using EM410 Phillips electron microscope (Eindhoven, The Netherlands) set at 60 kV and a magnification of 153000×.
Characterization of particles: The particle size and the zeta-potential were measured using ZetaPlus® zeta-potential analyzer, Brookhaven Instruments Ltd. (New York, N.Y.), which employs the dynamic light scattering technique for particle size measurement. The particle size and zeta-potential measurements were carried out after 1:1000 dilution of particle stock in filtered deionized water before lyophilization in filtered deionized water. The effective diameter of conjugated nanoparticles was higher than that of unconjugated nanoparticles.
Particle Size Analysis: Particle size and zeta-potential of the nanoparticles before and after conjugation following lyophilization were measured in double distilled water (100 μl of particle/1 ml of water) using dynamic light scattering (DLS). After lyophilization the plasmid loaded particles were weighed (1 mg) into glass Kimble tubes. To each tube, 1 ml of double distilled water was added and vortexed at high speed (Vortex Genie, Scientific Industries, Bohemia, N.Y.) till the particles were resuspended. The particle size and zeta potential was determined using dynamic light scattering after dilution (1:10 in double distilled water) (Brookhaven Instruments Corp., Holtsville, N.Y.). Nanoparticle size after lyophilization was 210.4±0.68 nm and zeta potential was −32.85±0.87 mV. Nanoparticle size and zeta potential was measured after conjugation with deslorelin and transferrin. Similarly, the unconjugated nanoparticles were also treated under the same conditions as with the conjugated nanoparticles (the conjugation protocol as mentioned above).
Transport studies were conducted in bovine nasal tissue. Bovine nasal tissue was obtained from freshly slaughtered cattle, and different regions (MTA, MTP, ITP) were prepared as described in Example 13. Nanoparticles coupled to deslorelin or transferring via aldehyde sulfate moieties were prepared as described in Example 3. The nanoparticle size was measured using a Zeta Plus Analyzer (Brookhaven Instruments Limited, UK). Particle size was analyzed before and after ligand conjugation in deionized filtered water.

[4] = test system: bovine corneal epithelium, stroma, endothelium and aqueous humor; experiment: Eye drop nanoparticle uptake in excised (ex vivo) bovine eye model; type: in vitro ADME
Method: The precorneal residence of eye drops is very short and effective delivery to the cornea requires rapid binding and entry of drugs or carriers in vivo. The in vivo situation was simulated using an intact bovine eye for an ex vivo model. […] Then, the particle uptake at 5 and 60 min was measured following thorough washing of the eye surface to remove any loosely adherent particles. The uptake was expected to be the highest for the solutes or carriers tightly bound to the corneal surface or for those that are rapidly taken up by the corneal epithelium. To maintain the surface moisture and to simulate tear flow in part, buffer drops (50 μl) were administered every 15 min, and the water bath was sealed.
Freshly excised bovine eyes were obtained from a local slaughterhouse (Nebraska Beef, Omaha, Nebr.). The experiments were initiated within 2-3 hours after sacrifice. For the experiment, bovine eyes were placed in Teflon coated wells containing assay buffer to immerse the posterior segment, while exposing the cornea towards the surface. The Teflon coated well plate was placed in a shaking water bath maintained at 37° C. and the water bath was sealed with Saran Wrap™ (S.C. Johnson & Son, Inc., Racine, Wis.). Alternatively, the setup was placed in a cold room maintained at 4° C. Prior to dosing, the eyes were equilibrated for about 30 min with assay buffer at 37° C. or 4° C. as required. The measured temperatures of the vitreous humor and aqueous humor in the 37° C. study were ˜37° C. and ˜35° C., respectively. The measured temperature was ˜5° C. for both vitreous humor as well as aqueous humor in the 4° C. study. In the ex vivo studies, either 5 or 60 min time points were chosen since eye drops are rapidly cleared from the tissue surface and because high solute uptake is desired in a short time with eye drops.
Ex vivo model studies involved administration of a 50 μl dosing solution/suspension drop to the cornea followed by 50 μl drops of assay buffer on the cornea every 15 minutes to maintain corneal moisture. At the end of 0, 5, or 60 minutes study, the corneal surface was washed thrice with assay buffer (1 ml each time) followed by three washes with acid buffer (1 ml each time; assay buffer adjusted to pH 5.0 with HCl) to remove any loosely adherent nanoparticles prior to tissue analysis. The same protocol was followed even when plain buffer drops were assessed. To initiate the uptake experiment, a 50 μl eye drop of 10 mg/ml (in studies assessing the influence of epithelium in particle uptake) or 1 mg/ml nanoparticle suspension (unconjugated nanoparticles with carboxylate functionalities, deslorelin-CA and transferrin-CA) was topically administered to isolated bovine eyeballs. Buffer and wash treatments were performed as described above. At 5 and 60 minutes after drop instillation, the incubation was terminated and the corneal epithelium, stroma, endothelium and aqueous humor (0.5 ml) were isolated from the eyeball. The tissues were homogenized in 2% Triton-X. The supernatant obtained after centrifuging tissue homogenate at 5000 rpm (Marathon Micro AR, Fisher Scientific) for 10 minutes was analyzed by spectrofluorometry at excitation and emission wavelengths of 505 and 515 nm, respectively.

excised bovine cornea = experiment: Nanoparticle transport and uptake, excised bovine cornea in modified Ussing chambers; type: in vitro ADME
Method: (§1) Nanoparticle uptake and transport studies were performed using excised bovine cornea and conjunctiva mounted in vertical diffusion chambers. Modified Ussing chambers (Navicyte, Reno, N.Y.) were used to mount bovine corneas and conjunctivas for transport studies. The tissues were exposed to 1.5 ml of assay buffer with either conjugated or unconjugated nanoparticles (100 μg/ml) on the mucosal/tear side (donor side). The area of exposure is 0.64 cm^2 for conjunctiva and slightly greater for cornea due to curvature. The receiver side was exposed to 1.5 ml of assay buffer without nanoparticles. The buffers were pre-equilibrated to 37° C. or 4° C. as required and the chambers were maintained at the desired temperature. […] The experiment was terminated at 4 hours and the samples were stored in polypropylene tubes at 4° C. until analysis.
(§2) At the end of 4 hour transport studies, the tissue area exposed to particle suspension (aperture area: 0.64 cm^2) were cut and washed thrice with assay buffer followed by the acid buffer (pH 5.0). The tissues were then homogenized in 2% Triton-X using Tissue Tearor™. The tissue debris was separated by centrifugation at 3000 rpm (Marathon Micro AR) for 10 minutes. The supernatant was collected to analyze the amount of nanoparticles taken up by the tissue. The supernatant was analyzed by spectrofluorometry at excitation and emission wavelengths of 505 and 515 nm, respectively.

[5] = test system: excised bovine conjunctiva; experiment: Nanoparticle transport and uptake, excised bovine conjunctiva in modified Ussing chambers; type: in vitro ADME
Method: as §1, §2

[6] = Corneal Epithelium, 50 μl of 1 mg/ml
[7] = Corneal Stroma, 50 μl of 1 mg/ml
[8] = versus unconjugated nanoparticles, 37° C.

Compound `CCNC(=O)[C@@H]1CCCN1C(=O)[C@H](CCCN=C(N)N)NC(=O)[C@H](CC(C)C)NC(=O)[C@@H](Cc1c[nH]c2ccccc12)NC(=O)[C@H](Cc1ccc(O)cc1)NC(=O)[C@H](CO)NC(=O)[C@H](Cc1c[nH]c2ccccc12)NC(=O)[C@H](Cc1cnc[nH]1)NC(=O)[C@@H]1CCC(=O)N1` [deslorelin] has an IC50 (LHRH-receptor; ITP) of 32.9 ± 1.25 nM, an IC50 (LHRH-receptor; MTA) of 53.2 ± 4 nM and an IC50 (LHRH-receptor; MTP) of 42.1 ± 1.83 nM. The IC50 (LHRH-receptor; Pituitary, competition with 125I-deslorelin) was 17.9 ± 0.449 nM and the “high affinity binding sites as share of all the binding sites available” value (LHRH-receptor; competition studies, nasal tissue regions) was 60-70%.
For `CCNC(=O)[C@@H]1CCCN1C(=O)[C@H](CCCNC(=N)N)NC(=O)[C@H](CC(C)C)NC(=O)[C@@H](CC(C)C)NC(=O)[C@H](Cc1ccc(O)cc1)NC(=O)[C@H](CO)NC(=O)[C@H](Cc1c[nH]c2ccccc12)NC(=O)[C@H](Cc1c[nH]cn1)NC(=O)[C@@H]1CCC(=O)N1` [leuprolide], the bioavailability ([1]; inhaled or intranasal) is listed as 2.9% and the bioavailability [1] is listed as 28%.
`OC[C@@H](O)[C@@H](O)[C@H](O)[C@H](O)CO` [mannitol] gave a Papp at 4 h, 1 μCi/ml ([2]; corneas isolated at 5 min following 50 μl assay buffer drop) of 0.5 ± 0.1 ×10⁻⁶ cm/s, a Papp at 4 h, 1 μCi/ml ([2]; corneas isolated at 60 min following 50 μl assay buffer drop) of 0.47 ± 0.04 ×10⁻⁶ cm/s and a Papp at 4 h, 1 μCi/ml ([2]; freshly isolated corneas) of 0.4 ± 0.1 ×10⁻⁶ cm/s.
In the case of “Transferrin-CA: transferrin-carboxylate-conjugated polystyrene nanoparticles”, the Zeta potential [3] is reported as −29.24 ± 4.33 mV, the “Measured Diameter” value ([3]; 1:1000 dilution in filtered deionized water, includes hydrodynamic layer, n = 3) is reported as 84.7 ± 0.8 nm and the “Corneal epithelial uptake (60 min)” value ([4]; Control (4° C.)) is reported as 307.1 ± 124 ng/mg tissue/mg dose. For the same compound, the “Corneal epithelial uptake (60 min)” value ([4]; Control (37° C.)) was 1146.3 ± 306.6 ng/mg tissue/mg dose, the “Concentration at 5 min” value [4, 6] was 791 ± 239 ng/mg tissue/mg dose and the “Concentration at 60 min” value [4, 6] was 1146 ± 307 ng/mg tissue/mg dose. The “NP uptake at 5 min (%)” value [4, 6] was 4.96%, the “NP uptake at 60 min (%)” value [4, 6] was 7.19% and the “NP uptake at 5 min (%)” value [4, 7] was 10.98%. The “NP uptake at 60 min (%)” value [4, 7] was 3.31%, the “Corneal epithelial uptake (60 min)” value ([4]; With free ligand (37° C.), free deslorelin or transferrin 1 mg/ml) was 467.1 ± 131.9 ng/mg tissue/mg dose and the “total corneal uptake in 5 min” value ([4]; summary of Examples 5-8) was roughly 16%. The “uptake by isolated bovine cornea at the end of 4 hours” value (excised bovine cornea; 37° C.) was 2.36±0.03%, the “cumulative transport in 4 hours across isolated bovine cornea” value (excised bovine cornea; 37° C., 100 μg/ml donor) was 2.76±0.03% and the “reduction in corneal uptake at 4° C.” value (excised bovine cornea; versus 37° C.) was 47%. For the same compound, the “increase of percent transport across bovine cornea by conjugation” value (excised bovine cornea; [8]) was 74%, the “uptake in bovine conjunctiva at the end of 4 hours” value ([5]; 37° C.) was 2.83±0.03% and the “cumulative transport in 4 hours across conjunctiva” value ([5]; 37° C., 100 μg/ml donor) was 3.5±0.1%. For the same compound, the “reduction in conjunctival uptake at 4° C.” value ([5]; versus 37° C.) was 52%, the “reduction in the cumulative transport in conjunctiva at 4° C.” value ([5]; versus 37° C.) was 89% and the “increase of percent transport across conjunctiva by conjugation” value [5, 8] was 51%.
